Test results reported in article PMC10755785 (The Journal of Biological Chemistry, 2023).
Blank lines part the entries; values can stand above or below the molecule they belong to.

Legend:
[1] = molecular target: σ^s (RpoS), His-tagged (Escherichia coli) (UniProt P13445); experiment: pull-down
[2] = molecular target: σ^s (RpoS), His-tagged (Escherichia coli) (UniProt P13445); experiment: SEC
σ^s (RpoS), His-tagged = σ^s (RpoS), His-tagged (Escherichia coli, UniProt P13445 1-330); experiment: pull-down
Sequence of σ^s (RpoS), His-tagged (P13445 whole entry): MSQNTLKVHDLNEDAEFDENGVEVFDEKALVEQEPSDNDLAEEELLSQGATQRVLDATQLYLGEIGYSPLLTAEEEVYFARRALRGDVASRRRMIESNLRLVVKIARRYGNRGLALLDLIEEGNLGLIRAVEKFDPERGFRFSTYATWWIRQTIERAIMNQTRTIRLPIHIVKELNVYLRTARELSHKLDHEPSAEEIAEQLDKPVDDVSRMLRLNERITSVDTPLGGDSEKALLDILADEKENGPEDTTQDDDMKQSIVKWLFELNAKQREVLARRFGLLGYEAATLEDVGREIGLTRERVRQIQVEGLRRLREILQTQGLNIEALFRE

Sequence of σ^s (RpoS), His-tagged (Escherichia coli) (P13445 whole entry): as above

fold increase in pull-down efficiency with beryllofluoride against without [1]: 5 fold
Molecule: RssB (wild type, full length) (from UniProt P0AEV1 1-337) (natural protein)

stoichiometry N [2]: 1 σ^s:RssB
Molecule: RssB∼P (RssB phosphorylated with acetyl phosphate) (from UniProt P0AEV1 1-337) (natural protein)

percent of WT binding (σ^s (RpoS), His-tagged): ~50 % of WT
B1: RssB^F129A;S131A (natural protein, Escherichia coli)
chain: MTQPLVGKQILIVEDEQVFRSLLDSWFSSLGATTVLAADGVDALELLGGFTPDLMICDIAMPRMNGLKLLEHIRNRGDQTPVLVISATENMADIAKALRLGVEDVLLKPVKDLNRLREMVFACLYPSMANARVEEEERLFRDWDAMVDNPAAAAKLLQELQPPVQQVISHCRVNYRQLVAADKPGLVLDIAALSENDLAFYCLDVTRAGHNGVLAALLLRALFNGLLQEQLAHQNQRLPELGALLKQVNHLLRQANLPGQFPLLVGYYHRELKNLILVSAGLNATLNTGEHQVQISNGVPLGTLGNAYLNQLSQRCDAWQCQIWGTGGRLRLMLSAE
